Assay [1] addresses KDR endogenously expressed on human umbilical vein endothelial cells (HUVEC) (human, UniProt P35968 20-1356). The experiment in a line: cell-based or functional assay.
Assay [2] has as its target T1, soluble KDR extracellular domain (ECD) (Calbiochem) (human, UniProt P35968 20-764).
T1 construct: extracellular domain; Bought protein; also called KDR-ECD; VEGF Receptor 2 D1-7, Cat. #676490
Description: High Antigen ELISA, KDR coat 500 ng/mL, supernatant 1:25. The procedure: (§1) ELISA plates were coated with a greater amount of KDR (at 500 ng/mL) in comparison with the Limited Antigen Quantitation assay described below. Sample containing antibody (Ab) was titrated on the KDR-coated ELISA plates and was incubated overnight at 4° C. to allow Ab binding to approach equilibrium. Titration of Ab in sample covered a dilution range of 1:25 to 1:18,225. A standard curve of KDR-specific antibody of known concentration was used to define the linear range of the assay. Data within the linear range were used to derive the relative concentration of KDR-specific Ab in each titrated sample. The high KDR concentration and the overnight incubation limited the effect of Ab affinity, allowing quantitation of the relative amount of KDR-specific Ab present in each sample.

Assay [3] concerns the target T1, soluble KDR extracellular domain (ECD) …. The experiment in a line: High Antigen ELISA, KDR coat 500 ng/mL, supernatant 1:75. How it is done: as §1
Assay [4] shares this target. Description: High Antigen ELISA, KDR coat 500 ng/mL, supernatant 1:225. How it is done: as §1
A general note: ELISA stands for enzyme-linked immunosorbent assay.

Assay [5] shares this target. The experiment in a line: High Antigen ELISA, KDR coat 500 ng/mL, supernatant 1:675. How it is done: as §1
Assay [6] has the same target. Description: High Antigen ELISA, KDR coat 500 ng/mL, supernatant 1:2025. The procedure:
as §1

Assay [7] shares this target. The experiment in a line: High Antigen ELISA, KDR coat 500 ng/mL, supernatant 1:6075. The procedure:
as §1

Assay [8] shares this target. The experiment in a line: Limited Antigen ELISA, KDR coat 25 ng/mL, supernatant 1:25. How it is done:
(§2) Samples containing one concentration of antibody (Ab) (1:25 dilution) were incubated overnight to allow Ab binding to approach equilibrium. The low antigen concentration limited the effect of antibody concentration, allowing ranking of the antibodies based on their relative affinity.

For assay [9] the target is unchanged. Description: Limited Antigen ELISA, KDR coat 50 ng/mL, supernatant 1:25. How it is done: as §2
For assay [10] the target is unchanged. Description: High Antigen ELISA, KDR coat 500 ng/mL, supernatant 1:18,225. The procedure: as §1
Assay [11] has the same target. Description: Limited Antigen ELISA, KDR coat 12.5 ng/mL, supernatant 1:25. The procedure: as §2
Assay [12] has the same target. The experiment in a line: Limited Antigen ELISA, KDR coat 6.25 ng/mL, supernatant 1:25. How it is done: as §2
For assay [13] the target is unchanged. Description: Limited Antigen ELISA, KDR coat 3.125 ng/mL, supernatant 1:25. How it is done: as §2

T1 sequence (P35968 20-764): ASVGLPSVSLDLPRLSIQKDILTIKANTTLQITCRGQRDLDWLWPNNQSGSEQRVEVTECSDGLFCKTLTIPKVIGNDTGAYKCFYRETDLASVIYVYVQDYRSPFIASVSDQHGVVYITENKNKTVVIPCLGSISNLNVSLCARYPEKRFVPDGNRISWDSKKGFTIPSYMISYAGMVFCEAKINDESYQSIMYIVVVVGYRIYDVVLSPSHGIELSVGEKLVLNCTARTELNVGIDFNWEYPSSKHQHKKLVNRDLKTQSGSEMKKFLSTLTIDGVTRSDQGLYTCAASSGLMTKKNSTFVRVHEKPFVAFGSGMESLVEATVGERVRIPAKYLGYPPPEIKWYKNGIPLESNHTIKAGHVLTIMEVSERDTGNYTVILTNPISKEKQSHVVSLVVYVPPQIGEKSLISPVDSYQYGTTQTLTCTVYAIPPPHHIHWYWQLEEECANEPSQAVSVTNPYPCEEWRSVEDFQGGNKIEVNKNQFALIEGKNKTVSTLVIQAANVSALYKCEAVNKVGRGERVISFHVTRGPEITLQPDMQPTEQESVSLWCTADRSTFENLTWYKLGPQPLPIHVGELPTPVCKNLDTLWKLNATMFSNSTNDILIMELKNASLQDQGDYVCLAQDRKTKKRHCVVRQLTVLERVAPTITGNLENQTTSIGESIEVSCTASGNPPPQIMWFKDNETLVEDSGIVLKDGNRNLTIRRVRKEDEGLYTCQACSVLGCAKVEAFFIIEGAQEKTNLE
Sequence of KDR endogenously expressed on human umbilical vein endothelial cells (HUVEC) (P35968 20-1356): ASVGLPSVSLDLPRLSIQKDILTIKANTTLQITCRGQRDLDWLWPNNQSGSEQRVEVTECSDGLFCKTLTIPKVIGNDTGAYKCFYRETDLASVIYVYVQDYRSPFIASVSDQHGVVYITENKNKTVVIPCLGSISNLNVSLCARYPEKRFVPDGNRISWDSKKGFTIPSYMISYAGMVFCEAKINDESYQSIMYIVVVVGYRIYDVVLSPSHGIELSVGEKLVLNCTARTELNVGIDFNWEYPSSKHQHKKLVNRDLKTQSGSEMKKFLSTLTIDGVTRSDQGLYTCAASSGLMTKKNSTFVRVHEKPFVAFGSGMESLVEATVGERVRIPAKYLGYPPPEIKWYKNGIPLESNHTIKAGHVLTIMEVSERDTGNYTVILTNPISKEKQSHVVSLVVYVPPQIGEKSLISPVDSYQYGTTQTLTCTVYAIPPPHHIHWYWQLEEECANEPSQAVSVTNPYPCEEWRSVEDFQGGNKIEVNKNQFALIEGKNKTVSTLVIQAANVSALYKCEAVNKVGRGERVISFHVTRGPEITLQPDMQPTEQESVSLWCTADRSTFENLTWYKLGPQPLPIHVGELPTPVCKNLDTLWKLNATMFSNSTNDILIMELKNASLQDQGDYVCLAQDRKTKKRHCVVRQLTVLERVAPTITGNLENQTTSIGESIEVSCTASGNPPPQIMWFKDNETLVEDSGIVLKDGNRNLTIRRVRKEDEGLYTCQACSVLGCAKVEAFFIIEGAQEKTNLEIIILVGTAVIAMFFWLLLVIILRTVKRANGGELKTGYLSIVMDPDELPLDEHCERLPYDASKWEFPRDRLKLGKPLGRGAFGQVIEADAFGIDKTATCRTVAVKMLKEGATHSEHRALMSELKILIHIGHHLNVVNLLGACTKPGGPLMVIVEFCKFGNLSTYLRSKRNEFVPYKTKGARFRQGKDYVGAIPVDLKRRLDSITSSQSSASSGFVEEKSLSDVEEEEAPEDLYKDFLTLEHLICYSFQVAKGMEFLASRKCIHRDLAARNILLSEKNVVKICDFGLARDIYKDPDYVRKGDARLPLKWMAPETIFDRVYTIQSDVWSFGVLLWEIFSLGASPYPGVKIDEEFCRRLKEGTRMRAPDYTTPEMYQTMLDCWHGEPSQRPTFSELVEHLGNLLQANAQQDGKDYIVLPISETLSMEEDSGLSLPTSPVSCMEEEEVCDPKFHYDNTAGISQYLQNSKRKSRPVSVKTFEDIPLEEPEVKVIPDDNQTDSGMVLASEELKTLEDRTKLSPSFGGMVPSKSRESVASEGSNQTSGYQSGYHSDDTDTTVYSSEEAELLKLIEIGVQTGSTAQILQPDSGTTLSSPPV

B1: 24B3 (antibody, V domains shown)
VH: EVQLVESGGGLVKPGGSLRLSCAASGFTFSTYSMNWVRQAPGKGLEWVSFISGRSSYIYYADSVKGRFTISRDNAKNSLYLQMNSLRAEDTAVYYCSKDDWFEELWGQGTLVTVSS
VL: DIQMTQSPSSLSASVGDRVTITCRASQGIRSDLGWYQQKPGKAPKRLIYATSSLQSGVPSRFSGSGSGTEFTLTISSLQPEDFATYYCLQHNRYPWTFGQGTKVEIK
notes: Fully human mAb from XenoMouse hybridoma, tested as hybridoma supernatant
In the case of B1, the “VEGF-E-mediated Survival % Inhibition (Average)” value in assay [1] is 66%. In addition, in assay [1], the “VEGF-E-mediated Survival % Inhibition (n = 1)” value turned out to be 65%. Also, in assay [1], the “VEGF-E-mediated Survival % Inhibition (n = 2)” value worked out at 66%. Also, the ELISA reading in [2] is 2.33; in assay [3], 1.58; in assay [4] it was 1.16; in [5] it was 0.79; in assay [6], 0.31; in assay [7] it was 0.13. In addition, the ELISA reading in [8] was 0.21; in assay [9], 0.38; in [10], 0.08; in [11] it was 0.12; in [12] it was 0.08; in [13], 0.07.

B2: 24C9 (antibody, V domains shown)
VH: EVQLVESGGGLVKPGGSLRLSCAASGFTFSTYSMNWVRQAPGKGLEWVSFISGRSSYIYYADSVKGRFTISRDNAKNSLYLQMNSLRAEDTAVYYCSKDDWFEELWGQGTLVTVSS
VL: DIQMTQSPSSLSASVGDRVTITCRASQGIRNDLGWYQQKPGKAPKRLIYATFSLQSGVPSRFSGSGSGTEFTLTISSLQPEDFATYYCLQHNRYPWTFGQGTKVEIK
notes: as for B1
For the molecule B2, the “VEGF-E-mediated Survival % Inhibition (Average)” value in assay [1] came to 72%. Moreover, the “VEGF-E-mediated Survival % Inhibition (n = 1)” value in [1] came to 72%. In assay [1], the “VEGF-E-mediated Survival % Inhibition (n = 2)” value was 72%. The ELISA reading worked out at 3.67 in [2]; 2.48 in assay [3]; 2.14 in assay [4]; 1.45 in assay [5]; 0.54 in assay [6]; 0.2 in assay [7]. The ELISA reading in assay [8] stood at 0.23; in [9], 0.5; in assay [10] it was 0.11; in [11] it was 0.13; in assay [12], 0.09; in [13] it was 0.07.

B3: 32G7 (antibody, V domains shown)
VH: EVQLVESGGGLVKPGGSLRLSCAASGFTISSYSMNWVRQAPGKGLEWVSFISSRSNYIYYADSVKGRFTISRDNAKNSLYLQMNSLRAEDTAVYYCSKDDWFEELWGQGTLVTVSS
VL: DIQMTQSPSSLSASVGDRVTITCRASQDIRNDLGWYQQKPGKAPKRLIYAASSLQSGVPSRFSGSGSGTEFTLTISSLQPEDFATYYCLQHNSFPWTFGQGTKVEIK
notes: as for B1
With B3, the “VEGF-E-mediated Survival % Inhibition (Average)” value in [1] worked out at 62%. Further, the “VEGF-E-mediated Survival % Inhibition (n = 1)” value in [1] was 69%. Besides, the “VEGF-E-mediated Survival % Inhibition (n = 2)” value in [1] was found to be 54%. Further, the ELISA reading in assay [2] was 2.03; in assay [3], 1.27; in assay [4] it was 0.96; in assay [5], 0.55; in assay [6], 0.38; in assay [7], 0.24. The ELISA reading in assay [8] stood at 0.15; in assay [9] it was 0.19; in assay [10] it was 0.11; in assay [11], 0.11; in [12], 0.08; in assay [13], 0.07.

B4: 33B1 (antibody, V domains shown)
VH: EVQLVESGGGLVKPGGSLRLSCAASGFTFSSYTMNWVRQAPGKGLEWVSFIDSRSSYIYYADSVKGRFTISRDNAKNSLYLQMNSLRAEDTAVYYCSKDDWFEELWGQGTLVTVSS
VL: DIQMTQSPSSLSASVGDRVTITCRASQGIRNDLGWYQQKPGKAPKRLIYATSSLQSGVPSRFSGSGSGTEFTLTISSLQPEDFATYYCLHHNSFPWTFGQGTKVEIK
notes: as for B1
As to B4, the “VEGF-E-mediated Survival % Inhibition (Average)” value in [1] was 67%. Also, the “VEGF-E-mediated Survival % Inhibition (n = 1)” value in assay [1] turned out to be 66%. Moreover, the “VEGF-E-mediated Survival % Inhibition (n = 2)” value in assay [1] came to 68%. In addition, the ELISA reading was 2.71 in [2]; 2.32 in assay [3]; 1.62 in assay [4]; 1.1 in [5]; 0.55 in assay [6]; 0.25 in assay [7]. In addition, the ELISA reading in assay [8] was 0.2; in assay [9], 0.23; in assay [10] it was 0.2; in assay [11] it was 0.12; in assay [12], 0.08; in assay [13], 0.08.

B5: 27D10 (antibody, V domains shown)
VH: QLQLQESGPGLVKPSETLSLTCTVSGGSISSRSDYWGWIRQPPGKGLEWIGTIYYSGSTFYNPSLKSRVTISVDTSKNQFSLKLSSVTAADTAVYYCARQQLVLYYFDYWGQGTLVTVSS
VL: not shown
notes: as for B1
B5: the “VEGF-E-mediated Survival % Inhibition (Average)” value in assay [1] was determined as 57%. Moreover, in [1], the “VEGF-E-mediated Survival % Inhibition (n = 1)” value stood at 50%. In addition, the “VEGF-E-mediated Survival % Inhibition (n = 2)” value in assay [1] amounted to 64%. Also, the ELISA reading in [2] was found to be 4.09; in [3], 4.02; in assay [4], 3.95; in assay [5], 3.79; in assay [6] it was 1.87; in assay [7] it was 0.89. Further, the ELISA reading in assay [8] was found to be 0.54; in [9] it was 1.36; in assay [10] it was 0.41; in assay [11], 0.25; in assay [12], 0.14; in assay [13] it was 0.12.

B6: 27A3 (antibody, V domains shown)
VH: QLQLQESGPGLVKPSETLSLTCTVSGGSISSRSDYWGWIRQPPGKGLEWIGTIYYSGDTYYNPSLKSRVTISVDTSKNQFSLKLSSVTAADTAVYYCARQQLVLYYFDYWGQGTLVTVSS
VL: EIVLTQSPGTLSLSPGERATLSCRASQSVSSSYLAWYQQKPGQAPRLLIYATSNRATGIPDRFSGSGSGTDFTLTISRLEPEDFAVYYCQQHGSSPPLTFGGGTKVEIK
notes: as for B1
Turning to B6, the “VEGF-E-mediated Survival % Inhibition (Average)” value in [1] worked out at 58%. Moreover, the “VEGF-E-mediated Survival % Inhibition (n = 1)” value in assay [1] was found to be 63%. Further, the “VEGF-E-mediated Survival % Inhibition (n = 2)” value in [1] was 52%. Besides, the ELISA reading worked out at 4.79 in assay [2]; 4.72 in [3]; 5.26 in assay [4]; 3.93 in assay [5]; 2.05 in assay [6]; 0.96 in assay [7]. Moreover, the ELISA reading in assay [8] was determined as 1.26; in assay [9], 2.3; in assay [10] it was 0.4; in [11], 0.54; in assay [12] it was 0.26; in [13], 0.15.

B7: 29D4 (antibody, V domains shown)
VH: QLQLQESGPGLVKPSETLSLTCTVSGGSISSRSNYWGWIRQPPGKGLEWIGTIYYSGHTYYNPSLKSRVSISVDTSKNQFSLKLSSVTATDTALYYCARQQLVLYYFEYWGQGTLVTVSS
VL: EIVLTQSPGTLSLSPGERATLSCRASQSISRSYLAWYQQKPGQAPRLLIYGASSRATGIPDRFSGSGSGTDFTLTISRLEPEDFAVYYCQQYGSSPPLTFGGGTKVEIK
notes: as for B1
For B7, the “VEGF-E-mediated Survival % Inhibition (Average)” value in assay [1] is 66%. In addition, the “VEGF-E-mediated Survival % Inhibition (n = 1)” value in assay [1] amounted to 64%. Also, the “VEGF-E-mediated Survival % Inhibition (n = 2)” value in assay [1] worked out at 67%. Moreover, the ELISA reading in assay [2] was 4.24; in [3] it was 5.57; in assay [4] it was 6; in assay [5] it was 4.09; in [6] it was 2.06; in assay [7], 0.66. Moreover, the ELISA reading in assay [8] was 1.87; in assay [9] it was 3.31; in assay [10], 0.25; in assay [11] it was 0.8; in [12], 0.41; in assay [13] it was 0.23.

Values taken from patent US20100260765A1 (AstraZeneca / MedImmune, published 2010).
